Test results taken from article PMC9971246, “The activation mechanism and antibody binding mode for orphan GPR20” (Cell Discovery, 2023).

Target: T1, N-terminal BRIL-fused wild-type human GPR20 (human, UniProt Q99678)
T1 construct: human GPR20, wild type, UniProt Q99678; codon-optimized gene in pFastBac1; Construct order: haemagglutinin signal peptide, Flag tag, BRIL, GPR20, HRV 3C protease site, 10x His; No cleavage with HRV 3C is described; BRIL is written as a carrier under tags, not as a part; also called WT GPR20; ligand-free GPR20; source: Trichuplusia ni Hi5 insect cells (baculovirus), co-expressed with DNGαi and …
T1 sequence (Q99678 whole entry, the tested form may be a part): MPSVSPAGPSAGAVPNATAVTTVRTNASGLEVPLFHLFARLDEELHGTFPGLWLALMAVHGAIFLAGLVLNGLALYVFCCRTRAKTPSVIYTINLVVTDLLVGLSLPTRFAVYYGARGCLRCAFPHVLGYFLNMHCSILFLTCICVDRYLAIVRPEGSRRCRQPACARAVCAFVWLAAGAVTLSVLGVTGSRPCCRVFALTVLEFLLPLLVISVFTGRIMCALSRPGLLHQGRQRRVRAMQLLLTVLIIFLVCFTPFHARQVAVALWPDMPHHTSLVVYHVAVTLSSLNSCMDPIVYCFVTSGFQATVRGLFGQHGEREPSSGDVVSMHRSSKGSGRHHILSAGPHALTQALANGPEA
Assay: cryo-EM structure; GPR20-Gi-Fab046 complex, pair of Fab046 and GPR20; TALON eluate (GPR20-Gi complex) mixed with purified Fab046 1:1.5 for 6 h, SEC in 20 mM HEPES pH 7.5, 100 mM NaCl, LMNG/GDN/CHS, 100 μM TCEP; 3.22 Å
Details: both partners purified

B1: Fab046, Fab fragment of the anti-GPR20 antibody Ab046 (Fab, V domains shown)
VH: QVQLQQSGAELAKPGSSVKISCKASGYTFTSYYISWIKQTTGQGLKYIGFINPGSGHTNYNEKFKGKATLTVDKSSSTAFMQLSSLTPDDSAIYYCARGAGGFLRIITKFDYWGQGVMVTVSS
VL: DTVLTQSPALAVSLGQRVTISCRASKSVSTYIHWYQQRSGQQPKLLIYSASNLESGVPSRFSGSGSGTDFTLTIDPVEPDDIANYYCQQINELPYTFGAGTKLELK
notes: modelled in the deposited structures PDB 8HS2 (VH + CH1) and PDB 8HSC (VH); modelled in the deposited structures PDB 8HS2 (intact light chain) and PDB 8HSC (VL); also called IgG046; source: Trichuplusia ni Hi5 insect cells (baculovirus, pFastBacDual), from the supernatant, purified (Ni-NTA, SEC)
  binding result: binds
